Paper PMC4592971

Molecular target: full length RhoA (Q63L) as it stands in the constitutively GTP-loaded DORA-RhoA biosensor (UniProt P61586)
Test: FRET or BRET; FRET inside the single-chain DORA-RhoA biosensor (CFP on RhoA, YFP on the PKN1 domain) in living HeLa cells; single cell emission spectra and frequency domain FLIM of the donor (75.1 MHz)

Chain of UniProt P61586 (P61586 whole entry Q63L, the tested form may be a part): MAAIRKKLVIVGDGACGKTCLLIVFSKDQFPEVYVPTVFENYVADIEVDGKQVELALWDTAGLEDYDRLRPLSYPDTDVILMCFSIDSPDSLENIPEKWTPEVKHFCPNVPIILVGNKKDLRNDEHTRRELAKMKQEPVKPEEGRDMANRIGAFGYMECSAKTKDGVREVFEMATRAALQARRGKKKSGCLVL

Substance: Rho binding domain of PKN1 (cpPKN) as it stands in the DORA-RhoA biosensor (domain or fragment)
- median donor fluorescence lifetime (FLIM): 2.4 ns
